Reference: article PMC8265735 (Biopolymers, 2021)
Where two headings read alike, the source gives them in different places.

How the values were obtained:
SAXS [1] = biological target: the molecule itself; experiment: SAXS
SAXS [2] = biological target: the molecule itself; experiment: SAXS; remark: listed apart in the source

B1: Hemoglobin III (HbIII) from Lucina pectinata, oxy form (natural protein, Lucina pectinata (Phacoides pectinatus), UniProt P41262 1-153, looked up)
chain: MSSGLTGPQKAALKSSWSRFMDNAVTNGTNFYMDLFKAYPDTLTPFKSLFEDVSFNQMTDHPTMKAQALVFCDGMSSFVDNLDDHEVLVVLLQKMAKLHFNRGIRIKELRDGYGVLLRYLEDHCHVEGSTKNAWEDFIAYICRVQGDFMKERL
stoichiometry N (SAXS [1]): 4
stoichiometry N (SAXS [2]): 2
